Molecular target: mouse proNGF (mouse) (UniProt P01139)
Experiment: SAXS

- stoichiometry N: 2
Substance: mouse proNGF (from UniProt P01139 19-241) (natural protein)

— doi:10.1101/333070
